Source: article PMC3064766 (Nucleic Acids Research, 2010)

Assays:
[1] = target: T1, myc-tagged Cbp80p (S. cerevisiae, UniProt P34160 1-861); experiment: pull-down
T1 sequence (looked up): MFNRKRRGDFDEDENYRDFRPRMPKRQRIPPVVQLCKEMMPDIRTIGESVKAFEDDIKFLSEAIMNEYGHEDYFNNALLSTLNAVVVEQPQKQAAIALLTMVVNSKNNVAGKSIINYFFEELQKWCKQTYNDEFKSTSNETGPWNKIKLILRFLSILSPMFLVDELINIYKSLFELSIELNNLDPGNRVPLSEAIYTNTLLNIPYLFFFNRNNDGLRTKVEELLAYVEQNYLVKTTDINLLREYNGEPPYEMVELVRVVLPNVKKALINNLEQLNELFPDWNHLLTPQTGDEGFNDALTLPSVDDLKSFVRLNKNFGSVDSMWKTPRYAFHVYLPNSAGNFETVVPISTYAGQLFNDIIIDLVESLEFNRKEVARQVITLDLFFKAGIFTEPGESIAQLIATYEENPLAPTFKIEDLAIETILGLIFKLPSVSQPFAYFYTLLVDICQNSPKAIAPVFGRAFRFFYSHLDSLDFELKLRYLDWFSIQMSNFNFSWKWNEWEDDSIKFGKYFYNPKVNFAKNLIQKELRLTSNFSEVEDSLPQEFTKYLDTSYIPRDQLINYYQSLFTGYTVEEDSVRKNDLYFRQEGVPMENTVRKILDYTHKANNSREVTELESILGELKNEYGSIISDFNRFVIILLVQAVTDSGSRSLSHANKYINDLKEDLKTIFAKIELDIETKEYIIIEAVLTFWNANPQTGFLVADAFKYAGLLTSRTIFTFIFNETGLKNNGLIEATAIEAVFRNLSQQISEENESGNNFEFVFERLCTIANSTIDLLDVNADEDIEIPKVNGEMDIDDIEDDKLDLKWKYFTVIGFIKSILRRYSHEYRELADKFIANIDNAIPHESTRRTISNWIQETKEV

[2] = target: myc-tagged Mot1p (S. cerevisiae, UniProt P32333 1-1867); experiment: co-IP
Sequence of myc-tagged Mot1p (P32333 whole entry): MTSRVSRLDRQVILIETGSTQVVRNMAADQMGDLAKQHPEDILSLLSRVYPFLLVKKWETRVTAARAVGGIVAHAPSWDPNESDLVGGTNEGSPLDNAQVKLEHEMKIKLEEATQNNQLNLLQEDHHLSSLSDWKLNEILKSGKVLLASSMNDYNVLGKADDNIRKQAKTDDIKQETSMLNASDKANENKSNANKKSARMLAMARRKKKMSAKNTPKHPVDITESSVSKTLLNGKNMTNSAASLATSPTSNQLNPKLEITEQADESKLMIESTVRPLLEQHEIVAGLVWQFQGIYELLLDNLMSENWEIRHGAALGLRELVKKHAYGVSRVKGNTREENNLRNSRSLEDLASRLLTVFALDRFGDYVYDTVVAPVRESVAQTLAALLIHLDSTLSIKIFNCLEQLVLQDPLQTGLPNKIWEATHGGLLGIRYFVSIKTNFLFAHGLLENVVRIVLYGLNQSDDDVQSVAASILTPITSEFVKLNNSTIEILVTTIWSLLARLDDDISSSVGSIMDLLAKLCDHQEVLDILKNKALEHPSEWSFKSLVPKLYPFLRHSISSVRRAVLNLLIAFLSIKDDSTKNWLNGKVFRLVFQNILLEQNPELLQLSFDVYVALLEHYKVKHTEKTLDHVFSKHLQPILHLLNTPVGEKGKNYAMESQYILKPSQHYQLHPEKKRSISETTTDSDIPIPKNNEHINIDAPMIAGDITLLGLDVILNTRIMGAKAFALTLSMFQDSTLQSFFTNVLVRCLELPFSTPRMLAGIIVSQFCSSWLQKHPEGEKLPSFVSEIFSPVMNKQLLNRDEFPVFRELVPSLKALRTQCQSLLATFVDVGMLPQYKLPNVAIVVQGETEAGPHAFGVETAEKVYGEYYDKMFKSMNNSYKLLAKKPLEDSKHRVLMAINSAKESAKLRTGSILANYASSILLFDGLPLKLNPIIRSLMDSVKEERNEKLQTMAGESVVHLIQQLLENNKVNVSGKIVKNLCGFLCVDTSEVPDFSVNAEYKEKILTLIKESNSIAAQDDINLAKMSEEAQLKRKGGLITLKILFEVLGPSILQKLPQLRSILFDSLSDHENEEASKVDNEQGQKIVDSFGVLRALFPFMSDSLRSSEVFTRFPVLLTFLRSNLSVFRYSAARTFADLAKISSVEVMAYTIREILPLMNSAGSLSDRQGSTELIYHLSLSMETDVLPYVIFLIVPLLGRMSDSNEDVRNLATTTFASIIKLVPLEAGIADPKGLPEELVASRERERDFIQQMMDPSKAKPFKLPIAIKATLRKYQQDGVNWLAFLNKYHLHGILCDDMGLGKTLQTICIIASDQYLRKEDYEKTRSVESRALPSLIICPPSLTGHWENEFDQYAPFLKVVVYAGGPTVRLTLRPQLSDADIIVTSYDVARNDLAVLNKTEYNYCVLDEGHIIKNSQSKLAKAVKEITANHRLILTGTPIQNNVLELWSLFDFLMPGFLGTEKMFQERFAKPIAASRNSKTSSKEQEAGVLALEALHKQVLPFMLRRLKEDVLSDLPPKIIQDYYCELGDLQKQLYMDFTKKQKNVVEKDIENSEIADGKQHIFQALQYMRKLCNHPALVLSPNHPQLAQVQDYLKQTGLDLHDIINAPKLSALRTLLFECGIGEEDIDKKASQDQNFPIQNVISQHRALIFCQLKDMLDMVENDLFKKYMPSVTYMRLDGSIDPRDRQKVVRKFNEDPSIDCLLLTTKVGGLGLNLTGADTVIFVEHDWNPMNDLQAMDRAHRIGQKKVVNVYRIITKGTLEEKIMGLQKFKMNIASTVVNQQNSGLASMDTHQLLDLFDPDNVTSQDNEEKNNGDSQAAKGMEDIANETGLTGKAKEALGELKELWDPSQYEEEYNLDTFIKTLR

B1: HA-tagged Cbp20p (natural protein, S. cerevisiae, UniProt Q08920 1-208, looked up)
chain: MSLEEFDEVKYDHSTKRLDTPSRYLLRKARRNPNGLQELRESMKSSTIYVGNLSFYTSEEQIYELFSKCGTIKRIIMGLDRFKFTPCGFCFIIYSCPDEALNALKYLSDTKLDEKTITIDLDPGFEDGRQFGRGKSGGQVSDELRFDFDASRGGFAIPFAERVGVPHSRFDNSSSQSNTNNYIPPPDAMGTFRPGFDEEREDDNYVPQ
B1: binds [1]; binds [2].
